How the values were obtained:
RBD mutant N501Y = RBD mutant N501Y (SARS-CoV-2, UniProt P0DTC2 319-591); experiment: binding study, chain shuffling
RBD mutant K417N [1] = target: T1, RBD mutant K417N (SARS-CoV-2, UniProt P0DTC2 319-591); experiment: binding study, chain shuffling
[2] = target: receptor binding domain (RBD) of SARS-CoV-2 glycoprotein S, wild-type (SARS-CoV-2, UniProt P0DTC2 319-591); experiment: binding study, chain shuffling (example 19)
RBD mutant K417N [3] = target: T1, RBD mutant K417N; experiment: binding study, FIG. 46

Measured: binding result

B1: hybrid antibody VL YU536-D04 / VH STE90-C11 (antibody, V domains shown)
VH: QVQLVESGGGLVQPGGSLRLSCAASGLTVSSNYMSWVRQAPGKGLEWVSVIYSGGSTYYADSVKGRFTISRDDSKNTLYLQMNSLRAEDTAVYYCARDVADAFDIWGQGTMVTVSS
VL: DIQLTQSPSSLSASVGDRVTITCRASQGISSYLAWYQQKPGKAPKLLIYAASTLQSGVPSRFSGSGSGTDFTLTISSLQPEDFATYYCQQLNSYPITFGQGTKLEIK
binds: RBD mutant N501Y | RBD mutant K417N [1] | [2]

B2: hybrid antibody VL YU537-H11 / VH STE90-C11 (antibody, V domains shown)
VH: QVQLVESGGGLVQPGGSLRLSCAASGLTVSSNYMSWVRQAPGKGLEWVSVIYSGGSTYYADSVKGRFTISRDDSKNTLYLQMNSLRAEDTAVYYCARDVADAFDIWGQGTMVTVSS
VL: QSVLTQPPSVSAAPGQKVTISCSGSSSNIGNNYVSWYQQLPGTAPKLLIYDTNKRPSGIPDRFSGSKSGTSATLGITGLQTGDEADYYCATWDSSLSVGVFGGGTKLTVL
binds: RBD mutant N501Y | RBD mutant K417N [1] | [2]

B3: hybrid antibody VL YU536-D04 / VH YU537-H11 (antibody, V domains shown)
VH: EVQLLESGGGLIQPGGSLRLSCAASGLTVSSNYMSWVRQAPGKGLEWVSVIYSGGSTYYADSVKGRFTISRDNSKNALYLQMNSLRAEDTAVYYCARGESGSPYGMDVWGQGTLVTVSS
VL: DIQLTQSPSSLSASVGDRVTITCRASQGISSYLAWYQQKPGKAPKLLIYAASTLQSGVPSRFSGSGSGTDFTLTISSLQPEDFATYYCQQLNSYPITFGQGTKLEIK
binds: RBD mutant N501Y | RBD mutant K417N [1] | [2]

B4: hybrid antibody VL STE90-C11 / VH YU536-D04 (antibody, V domains shown)
VH: QVQLVQSGGGLVQPGGSLRLSCAASGLTVSSNYMSWVRQAPGKGLEWVSVIYSGGSTYYADSVKGRFIISRDNSKNTLYLQMNSLRAEDTAVYYCARDLVVMGLDVWGKGTLVTVSS
VL: DIVMTQSPSFLSASVGDRVTITCRASQGISSYLAWYQQKPGKAPKLLIYAASTLQSGVPSRFSGSGSGTEFTLTISSLQPEDFATYYCQQLNSYPPFTFGPGTKVDIK
binds: RBD mutant N501Y | RBD mutant K417N [3] | [2]

B5: hybrid antibody VL STE90-C11 / VH YU537-H11 (antibody, V domains shown)
VH: EVQLLESGGGLIQPGGSLRLSCAASGLTVSSNYMSWVRQAPGKGLEWVSVIYSGGSTYYADSVKGRFTISRDNSKNALYLQMNSLRAEDTAVYYCARGESGSPYGMDVWGQGTLVTVSS
VL: DIVMTQSPSFLSASVGDRVTITCRASQGISSYLAWYQQKPGKAPKLLIYAASTLQSGVPSRFSGSGSGTEFTLTISSLQPEDFATYYCQQLNSYPPFTFGPGTKVDIK
binds: RBD mutant N501Y | RBD mutant K417N [1] | [2]

B6: hybrid antibody VL YU537-H11 / VH YU536-D04 (antibody, V domains shown)
VH: QVQLVQSGGGLVQPGGSLRLSCAASGLTVSSNYMSWVRQAPGKGLEWVSVIYSGGSTYYADSVKGRFIISRDNSKNTLYLQMNSLRAEDTAVYYCARDLVVMGLDVWGKGTLVTVSS
VL: QSVLTQPPSVSAAPGQKVTISCSGSSSNIGNNYVSWYQQLPGTAPKLLIYDTNKRPSGIPDRFSGSKSGTSATLGITGLQTGDEADYYCATWDSSLSVGVFGGGTKLTVL
binds: RBD mutant N501Y | RBD mutant K417N [1] | [2]

Source: patent US20240059758A1 (CORAT THERAPEUTICS, published 2024)
